We go through 1 molecule from US20250283063, “NOVEL CRISPR-CAS12I SYSTEMS AND USES THEREOF” (HUIDAGENE THERAPEUTICS (SINGAPORE) PTE. LTD., published 2025).

One data set concerns the target T1, xCas12i-D892R (v4.3) (D892R).
T1 chain: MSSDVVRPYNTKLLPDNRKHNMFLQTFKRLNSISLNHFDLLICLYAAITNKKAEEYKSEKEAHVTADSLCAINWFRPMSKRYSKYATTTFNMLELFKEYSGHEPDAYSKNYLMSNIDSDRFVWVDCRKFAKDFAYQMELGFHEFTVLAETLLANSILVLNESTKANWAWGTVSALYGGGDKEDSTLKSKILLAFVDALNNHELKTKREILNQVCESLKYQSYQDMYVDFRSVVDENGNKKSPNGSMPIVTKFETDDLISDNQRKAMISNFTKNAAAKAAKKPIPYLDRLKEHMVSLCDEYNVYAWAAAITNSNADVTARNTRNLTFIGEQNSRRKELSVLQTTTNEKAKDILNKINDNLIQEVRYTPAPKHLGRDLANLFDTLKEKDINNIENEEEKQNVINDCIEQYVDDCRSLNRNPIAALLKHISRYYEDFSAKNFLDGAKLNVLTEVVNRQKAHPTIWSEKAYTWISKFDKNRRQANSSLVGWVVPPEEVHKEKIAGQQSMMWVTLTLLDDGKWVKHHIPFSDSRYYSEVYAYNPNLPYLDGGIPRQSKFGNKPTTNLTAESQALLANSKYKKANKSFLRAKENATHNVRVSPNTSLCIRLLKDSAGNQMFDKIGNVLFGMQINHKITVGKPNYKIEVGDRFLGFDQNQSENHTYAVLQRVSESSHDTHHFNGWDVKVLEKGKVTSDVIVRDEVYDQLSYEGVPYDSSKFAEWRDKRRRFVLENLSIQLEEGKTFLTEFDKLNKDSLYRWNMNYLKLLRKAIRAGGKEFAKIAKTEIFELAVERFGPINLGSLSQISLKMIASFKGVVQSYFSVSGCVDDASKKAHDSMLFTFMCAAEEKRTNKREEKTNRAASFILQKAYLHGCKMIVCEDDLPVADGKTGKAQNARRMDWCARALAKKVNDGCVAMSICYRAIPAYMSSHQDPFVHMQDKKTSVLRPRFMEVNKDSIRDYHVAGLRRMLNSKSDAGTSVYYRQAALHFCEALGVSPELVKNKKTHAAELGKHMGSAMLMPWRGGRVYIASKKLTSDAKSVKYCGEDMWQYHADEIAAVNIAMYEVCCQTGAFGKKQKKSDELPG
In words: cell_activity; HEK293T EGFP reporter. The following applies: tags: NLS. From the text: (§1) To vary xCas12i's dsDNA cleavage activity and/or expand its scope of PAM site recognition, the applicant engineered xCas12i protein via mutagenesis and screened for mutants with various dsDNA cleavage activity and broader PAM using a dual plasmid fluorescent reporter system similar to the dual plasmid fluorescent reporter system in Example 1, except that the EGxxxxFP-targeting guide RNA (SEQ ID NO: 51; “crON/crRNA On-target”) coding sequence operably linked to U6 promoter was not located on the expression plasmid together with the xCas12i (or its mutant) coding sequence (SEQ ID NO: 31) but located on the reporter plasmid together with the BFP-P2A-EGxxxxFP coding sequence (SEQ ID NO: 41) (referring to “On-Target Reporter” in FIG. 1B). […] The applicant then individually transfected the expression plasmid and the reporter plasmid into HEK293T cells and analyzed them by FACS (FIG. 1B). […]

For the next data set, the target named is T2, xCas12i-E875R (E875R).
T2 chain: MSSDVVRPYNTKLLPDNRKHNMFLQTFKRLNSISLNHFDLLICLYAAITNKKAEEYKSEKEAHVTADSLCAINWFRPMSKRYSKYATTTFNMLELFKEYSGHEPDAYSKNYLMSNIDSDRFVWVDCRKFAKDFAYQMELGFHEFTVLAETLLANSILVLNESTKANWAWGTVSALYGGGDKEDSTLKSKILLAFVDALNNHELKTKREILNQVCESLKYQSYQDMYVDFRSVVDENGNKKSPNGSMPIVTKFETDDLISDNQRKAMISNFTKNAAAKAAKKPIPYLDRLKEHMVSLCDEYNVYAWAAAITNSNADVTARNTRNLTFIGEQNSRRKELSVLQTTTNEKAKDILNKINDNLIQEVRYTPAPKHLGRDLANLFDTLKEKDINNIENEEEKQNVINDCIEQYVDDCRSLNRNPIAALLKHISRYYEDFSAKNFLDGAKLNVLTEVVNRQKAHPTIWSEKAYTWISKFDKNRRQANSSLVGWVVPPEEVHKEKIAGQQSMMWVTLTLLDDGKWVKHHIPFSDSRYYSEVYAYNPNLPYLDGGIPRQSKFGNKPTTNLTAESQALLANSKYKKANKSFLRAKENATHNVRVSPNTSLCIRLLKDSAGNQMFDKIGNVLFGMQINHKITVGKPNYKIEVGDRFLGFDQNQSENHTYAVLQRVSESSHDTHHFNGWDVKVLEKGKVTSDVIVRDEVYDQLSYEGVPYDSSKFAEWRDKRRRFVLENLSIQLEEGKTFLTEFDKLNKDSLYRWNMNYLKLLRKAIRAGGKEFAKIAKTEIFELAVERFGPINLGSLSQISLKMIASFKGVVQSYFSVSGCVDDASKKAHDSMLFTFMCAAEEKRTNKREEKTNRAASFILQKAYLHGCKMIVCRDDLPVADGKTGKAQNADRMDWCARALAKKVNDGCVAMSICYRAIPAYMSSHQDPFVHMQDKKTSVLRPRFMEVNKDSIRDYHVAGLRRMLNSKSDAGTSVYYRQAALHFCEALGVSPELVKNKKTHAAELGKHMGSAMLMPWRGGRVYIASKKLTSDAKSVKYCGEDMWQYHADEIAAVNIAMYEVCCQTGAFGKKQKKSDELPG
In words: cell_activity; RuvC catalytic residue; cleavage readout. The following applies: tags: NLS.
From the text: as §1

B1: crEGFP DR-T1 ; EGxxxxFP reporter target (ssRNA ; dsDNA)
RNA: AUGACUCAGAAAUGUGUCCCCAGUUGACACCCAUUACAGUAGGAGCAUAC
DNA 1: GGATCCGTGTCTTTCCCATTACAGTAGGAGCATACGGGAGACAAGCTTTG
DNA 2: CAAAGCTTGTCTCCCGTATGCTCCTACTGTAATGGGAAAGACACGGATCC
Turning to B1, the results for the binding signal in the data set with xCas12i-D892R (v4.3) and in the data set with xCas12i-E875R were 1.42 relative to WT and 0.1 relative to WT, respectively.
